pKd: −log10 of the molar value.
Key:
[1] = biological target: adenovirus terminal protein-thioredoxin fusion protein (TP–Trx), bacterially expressed (adenovirus (serotype not given)); assay: AlphaScreen or HTRF; 30 nM TP–Trx (or Trx tag alone) on nickel NTA donor beads, serial dilutions of GST-tagged importins or GST control on GST acceptor beads; 0.5% BSA added, dilutions in PBS, room temperature in the dark; one-phase association fit
[2] = biological target: adenovirus terminal protein-thioredoxin fusion protein (TP–Trx), bacterially expressed (adenovirus (serotype not given))

importin β1 (Imp β1), GST-tagged (from UniProt P70168 1-876) (natural protein)
pKd [1]: 7.68
Nf/Cf of TP–Trx–AF594 microinjected into HeLa cells incubated with importazole (40 µM), a selective Imp β inhibitor; 1.62 with DMSO [2]: 1.04

From article PMC8036708
